T1: Mutant C87S NGAL rAg (CHO cell clone #734) (human, UniProt P80188 21-198, glycosylated (CHO))
T1 construct: also called NGAL mutant C87S antigen; mutant C87S NGAL rAg CHO 734
T1 chain: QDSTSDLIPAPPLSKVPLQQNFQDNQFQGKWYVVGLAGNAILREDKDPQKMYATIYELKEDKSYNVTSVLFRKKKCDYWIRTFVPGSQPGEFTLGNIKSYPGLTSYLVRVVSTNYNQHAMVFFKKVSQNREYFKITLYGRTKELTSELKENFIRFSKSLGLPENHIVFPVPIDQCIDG

T2: human NGAL (C87S) produced in E. coli, NGAL(+)mut8 (human, UniProt P80188 21-198, 15N/2H or 13C/15N isotope label (NMR, Example 8); BHQ-10S quencher label (KD titrations, Example 9))
T2 construct: also called BHQ-NGAL; isotope-labeled human NGAL
T2 chain: T1 chain

B1: anti-NGAL monoclonal antibody 1-903-430 (antibody, V domains shown)
VH: KIQLVQSGPELKKPGETVKISCKASGYTFTNYGMNWVKQAPGKGLKWMGWININTGEPTYAEEFKGRFAFSLETSATTAFLQINNLKNEDTATYLCARDSYSGGFDYWGQGTIVTVSS
VL: DIVMTQSPSSLSVSAGEKVTLSCKSSQSLLISGDQKNYLAWYQQKPGQPPKLLIYGASTRDSGVPDRFTGSGSGADFTLTISSVQAEDLAVYYCQNDHSFPPTFGAGTKLELKR
B2: anti-NGAL monoclonal antibody 1-2322-455 (antibody, V domains shown)
VH: EVQLVESGGGLVQPGGSLKLSCAASGFTFNNYYMSWVRQTPERRLEWVAYISSSGGSTYYSDSVRGRFTISRDTARNTLYLQMTSLKSEDTAMYYCARHFGDYSYFDYWGQGTTLTVSS
VL: DIQMTQSPASLSASVGETVTITCRASENFYSYLAWYQQKQGKSPQLLVYNAKTLAEGVPSRFSGSGSGTQFSLKINSLQPEDFGTYYCQHHYDIPLTFGAGTKLELKR

Legend:
[1] = target: T3, Wild-type NGAL rAg (CHO clone #662) (human, UniProt P80188 21-198, glycosylated (CHO)); experiment: KinExA, IgG in solution
T3 construct: also called NGAL wild-type antigen; wild-type NGAL rAg CHO 662
Description: (§1) The amount of free binding sites was determined by injecting the antibody/human NGAL reaction mixture over human NGAL immobilized on solid-phase Polymethyl-methacrylate (PMMA) beads. The free anti-NGAL antibody bound to the human NGAL coated beads were subsequently detected using the fluorescent CY5-conjugated goat anti-mouse polyclonal antibody (GAM-Cy5). The degree of GAM-Cy5 bound was proportional to the amount of anti-NGAL IgG bound to the human NGAL-coated beads. The KD was determined by analyzing the amount of free binding sites versus the amount of antigen present in the reaction sample using software provided by the manufacturer (Sapidyne Instruments, Boise, Id.). Experiments were performed in a PBS, pH 7.4, and 1% BSA reaction diluent.

[2] = target: T1, Mutant C87S NGAL rAg (CHO cell clone …); experiment: KinExA, IgG in solution
Description: as §1

[3] = target: T4, wild-type NGAL antigen displayed on yeast (AGA2 fusion) (human, UniProt P80188 21-198); experiment: flow cytometry, mAb titrated on yeast displaying NGAL
T4 construct: also called WT
Description: The side chain of each of the NGAL rAg residues identified from the epitope selections was altered by site-directed mutagenesis to alanine to confirm the functional epitope (direct contact residues) of each NGAL mAb subclone.
The change in Gibbs free binding energy (ΔΔG_Ala-WT) was determined to assess the energetic impact of each alanine substitution for mAb binding. The change in Gibbs free binding energy upon alanine substitution was calculated using the following equation [2],
For these experiments, observed fluorescence (F) was used to solve for KD using equation [1]. The KD derived from equation [1] one was then used in equation [2] to derive the change in Gibbs free binding energy upon alanine substitution. The KD is read from the abscissa of each of the curves at the inflection point.

[4] = target: T2, human NGAL (C87S) produced in E. coli, …; experiment: DC-FCCS sandwich formation in solution; second antibody mAb 809
Description: (§2) Samples were placed in a 96-microwell optical bottom plate (Nalge Nunc International, Rochester, N.Y.). The excitation wavelength was set at 810 nm, 3 mW on the sample. Sampling rate was set at 200 KHz and 10 million points were collected for each measurement. Each sample was measured twice. Experiments were performed on each sample after one-hour incubation.
(§3) Labeled antibodies were mixed at equal concentration (40 μL of 10 nM mAbs) and ligand (15 nM NGAL) was added to the solution. Cross-correlation curves before and after adding NGAL were calculated from the data sets acquired in each channel and the data were normalized.
(§4) For illustration purposes, a relative number was assigned to each antibody pair, which, in fact, is the ratio of Gx(0) values before and after the addition of NGAL to the antibodies (Table 13). All ratio values were corrected for the background. A value of “1” indicates no sandwich formation, values between 1.1 and 2.5 indicate a poor sandwich formation, and all values above 2.6 indicate productive antibody pairing.

[5] = target: T2, human NGAL (C87S) produced in E. coli, …; experiment: DC-FCCS sandwich formation in solution; second antibody mAb 903
Description: as §2, §3, §4

[6] = target: T2, human NGAL (C87S) produced in E. coli, …; experiment: DC-FCCS sandwich formation in solution; second antibody mAb 2322
Description: as §2, §3, §4

[7] = target: T2, human NGAL (C87S) produced in E. coli, …; experiment: fluorescence quenching titration: ALEXA 488-mAb with BHQ-NGAL in solution
Description: (§5) The equilibrium dissociation constants (KD) of NGAL and six anti-NGAL antibodies were measured in direct binding experiments. […] After 30 minutes incubation, all samples were measured on an SLM 8100 photon counting spectrofluorimeter. Samples were excited at 480 nm, and the emission was collected through a 530 nm (30 nm bandwidth) interference filter (Chroma Technology Corp., Rockingham, Vt.). All binding measurements were performed in 10 mM HEPES buffer, pH 7.4, containing 0.15 M NaCl, 3 mM EDTA, and 0.005% surfactant P20.
(§6) where Ligandₜₒₜₐₗ and ABSₜₒₜₐₗ are the BHQ-NGAL concentration and total antibody binding sites, respectively, and Fbound is the fraction of bound antibody sites. The binding data were fitted with a simple binding model to obtain the equilibrium dissociation constant (KD) according to equation [4]: […]

[8] = target: T2, human NGAL (C87S) produced in E. coli, …; experiment: fluorescence quenching titration in solution: ALEXA 488-labelled mAb at 0.05 nM, BHQ-labelled NGAL varied, fraction bound against free BHQ-NGAL
Description: as §5, §6

Binder | Kd [1] | Kd [2] | Kd [3] | ΔKD (KD against KD of WT) [3] | ΔΔG Ala-WT [3] | ratio of Gx(0) before and after adding NGAL [4] | ratio of Gx(0) before and after adding NGAL [5] | ratio of Gx(0) before and after adding NGAL [6] | Kd [7] | EC50 (read off the curve) [8]
B1 | 0.32 nM | 1.1 nM | 0.204 nM | 1 fold | 0 kcal/mol | 3 | 1 | 3.7 | 1.2 nM | ~1 nM
B2 | 0.024 nM | 0.023 nM | 0.0081 nM | 1 fold | 0 kcal/mol | 1.5 | 3.5 | 0.7 | 0.06 nM | ~0.06 nM
